Reference: patent US20230270894A1 (Regeneron, published 2023)

Tests used:
[1] = biological target: human LAG3 (lymphocyte activation gene-3 protein, CD223), expressed on cells (human) (UniProt P18627); experiment: cell-based or functional assay
[2] = biological target: T1, human LAG3 (lymphocyte activation gene-3 protein, CD223), expressed on cells (human, UniProt P18627 23-525); experiment: cell-based or functional assay
T1 sequence: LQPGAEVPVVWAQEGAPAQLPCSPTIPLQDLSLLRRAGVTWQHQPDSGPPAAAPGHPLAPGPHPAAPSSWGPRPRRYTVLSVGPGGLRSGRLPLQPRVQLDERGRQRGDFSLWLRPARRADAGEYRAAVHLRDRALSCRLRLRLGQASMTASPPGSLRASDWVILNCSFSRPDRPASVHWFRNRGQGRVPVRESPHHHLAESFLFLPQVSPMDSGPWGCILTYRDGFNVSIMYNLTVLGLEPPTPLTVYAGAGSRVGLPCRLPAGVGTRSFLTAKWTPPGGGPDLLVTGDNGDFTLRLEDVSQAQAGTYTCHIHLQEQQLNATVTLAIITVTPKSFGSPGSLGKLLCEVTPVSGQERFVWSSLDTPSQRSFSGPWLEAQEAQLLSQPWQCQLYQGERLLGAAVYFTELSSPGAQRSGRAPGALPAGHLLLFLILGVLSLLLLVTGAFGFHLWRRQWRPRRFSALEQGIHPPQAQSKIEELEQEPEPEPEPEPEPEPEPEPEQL

Question: For “89Zr-DFO-conjugated isotype control antibody”, which ex vivo biodistribution, tumor uptake (AVERAGE % ID/G) in MC38/ova/LAG3 tumors of NCr nude mice, 6 days post-dosing [1] is on record?
Answer: The ex vivo biodistribution, tumor uptake (AVERAGE % ID/G) in MC38/ova/LAG3 tumors of NCr nude mice, 6 days post-dosing was 7.8 % ID/g.

B1: 89Zr-DFO-mAb1 (anti-LAG3 antibody H4sH15482P conjugated with p-SCN-Bn-DFO and radiolabeled with 89Zr) (antibody, V domains shown)
VH: QVQLVESGGGVVQPGRSLRLSCVASGFTFSSYGMHWVRQAPGKGLEWVAIIWYDGSNKYYADSVKGRFTISRDNSKNTQYLQMNSLRAEDTAVYYCASVATSGDFDYYGMDVWGQGTTVTVSS
VL: EIVLTQSPATLSLSPGERTTLSCRASQRISTYLAWYQQKPGQAPRLLIYDASKRATGIPARFSGSGSGTGFTLTISSLEPEDFAVYYCQQRSNWPLTFGGGTKVEIK
Question: Which “Tumor-to-blood ratio (average), Raji/hPBMC tumors, day 6, protein dose 0.03 mg/kg” value [2] does the source give for B1 here?
Answer: The value was 9.71 ratio.

Question: What about the “Tumor-to-blood ratio (average), Raji/hPBMC tumors, day 6, protein dose 0.1 mg/kg” value [2] of the same molecule?
Answer: Its value is 5.44 ratio.

Question: And the “Tumor-to-blood ratio (average), Raji/hPBMC tumors, day 6, protein dose 0.3 mg/kg” value [2]?
Answer: The value was 3.46 ratio.

Question: And the “Tumor-to-blood ratio (average), Raji/hPBMC tumors, day 6, protein dose 5 mg/kg” value [2]?
Answer: Its value is 1.1 ratio.
